# B1: Activin A: member of the TGF-β superfamily (protein, UniProt P08476 311-426, looked up)
# Inhibin beta A chain: GLECDGKVNICCKKQFFVSFKDIGWNDWIIAPSGYHANYCEGECPSHIAGTSGSSLSFHSTVINHYRMRGHSPFANLKSCCVPTKLRPMSMLYYDDGQNIIKKDIQNMIVEECGCS
# modifications: Inhibin beta A chain
# notes: member of the TGF-β superfamily
# Test system: hESCs
# Test: Activin A alone in serum-free medium, pancreatic cell differentiation
# Assay type: cell-based, human
# Conditions: Activin A at 5 ng/ml, 50 ng/ml, or 100 ng/ml in serum-free medium
# Description: Activin is a member of the TGF-β superfamily and has various effects on diverse biological systems (Abe Y, et al. Growth Factors 2004 June; 22(2):105-10; herein incorporated by reference in its entirety). Activin A has been reported to have a role in the induction of definitive endoderm from hESCs (D'Amour, K. A., et al. (2005); herein incorporated by reference in its entirety).
molecule,measurement,value
B1,induction of pancreatic cell differentiation,cannot induce pancreatic cell differentiation

# Reference: US10138466B2, “Compositions and methods for differentiating stem cells into cell populations comprising beta-like cells” (REGENERATIVE MEDICAL SOLUTIONS, INC., priority 2014, dated 2018)
